# Test results: US9206246B2, “Heparin/heparan sulfate-dependent inhibitors of activated protein C and uses thereof in treating hemophilic disorders” (Academia Sinica, priority 2012, dated 2015)
# Several values for one entry are separate records, joined by “and”; a condition that tells them apart may be missing. Equal entries are not always repeated. Entries after “also recorded” stand apart in the source; their conditions may differ.
# What was measured:
# [1] = Heparin binding assay (HiTrap Heparin column, NaCl gradient); conditions: 0.0-1.0 M NaCl gradient, 20 mM Tris-HCl pH 8.0
# Experimental: A: 70 μg of DrKIn-I in 0.1 ml equilibrating buffer (20 mM Tris-HCl, pH 8.0) was applied to a 5 ml HiTrap Heparin column and eluted with a 50 ml gradient from 0.0-1.0 M NaCl. The salt concentration corresponding to the elution peak was determined to be 0.95 M. B, Binding of DrKIn-I (0.78, 1.56, 2.34, 3.13, 4.68 and 6.25 nM) to immobilized APC was assessed in buffer containing 10 mM HEPES, 0.15 M NaCl, 3 mM EDTA and 0.05% P20 at a flow rate of 60 μl/min at 25° C. […] The thin lines represent the global fit to the response data. […] Results shown are means±SD of three experiments. Representative binding traces are shown.
# [2] = system: protein C-deficient plasma; experiment: Thrombin generation assay in protein C-deficient plasma; type: biochemical; conditions: TM-containing protein C-deficient plasma, heparan sulfate
# Experimental: Thrombin generation in normal (A) and protein C-deficient (B) plasma. Experiments were performed in the presence of heparan sulfate (2 μg/ml). Solid lines represent thrombin generation in the presence of 100 nM thrombomodulin (TM) and varying concentrations of DrKIn-I (●, 0 nM; ▪, 40 nM; ▴, 80 nM; ◯, 200 nM). Dashed lines represent thrombin generation in the absence of TM and DrKIn-I.
# (§1) Briefly, 80 μl of either normal plasma, protein C-deficient plasma, FVIII-deficient plasma or FIX deficient plasma containing 2 μM corn trypsin inhibitor, 2 μg/ml heparan sulfate (four disaccharide units long), 30 μM DOPC/DOPS/DOPE (60:20:20) and 100 nM recombinant TM was incubated with 20 μl of 500-fold diluted TF solution (Innovin; Dade Behring) in the absence or presence of the indicated concentrations of DrKIn-I. Following incubation for 3 minutes at 37° C., thrombin generation was initiated by the dispensation of 20 μl of 2.5 mM fluorogenic substrate (Z-Gly-Gly-Arg-AMC.HCl) dissolved in 0.15 M NaCl, 60 mg/ml BSA and 100 mM CaCl2. Measurements were taken at 1 minute intervals on a SpectraMax M2^e Microplate Reader using an excitation wavelength of 360 nm and an emission wavelength of 460 nm. In some assays, experiments were performed in the absence of thrombomodulin. Results were evaluated using the Technothrombin TGA software (Technoclone).
# FIX-deficient plasma = experiment: Thrombin generation assay in FIX-deficient plasma; type: biochemical; conditions: 100 nM TM, 2 μg/ml heparan sulfate
# Experimental: (A) Representative thrombin generation curves in FVIII-deficient and FIX-deficient plasma performed in the presence of heparan sulfate (2 μg/ml), TM (100 nM) and varying concentrations of DrKIn-I (●, 0 nM; ▪, 20 nM; ▴, 40 nM; ▾, 80 nM; ◯, 200 nM). Dashed lines represent thrombin generation in the absence of TM and DrKIn-I. (B-C) Activity in FVIII-deficient (B) and FIX-deficient (C) plasma. Left panels show ETP; right panels, peak thrombin. For comparison, dashed lines represent the activity of normal plasma containing TM and heparan sulfate in the absence of the inhibitor. Results are represented as means±SEM of at least three independent experiments.
# as §1, with “Measurements were taken at 1 minute intervals on a SpectraMax M2^e Microplate Reader using an excitation wavelength of 360 nm and an emission wavelength of 460 nm. In some assays, experiments were performed in the absence of thrombomodulin.” left out
# APC [3] = target: T1, APC (Homo sapiens, UniProt P04070); experiment: APC-mediated FVa inactivation assay (residual FVa activity, prothrombin time-based); type: biochemical; parameters: purchased Haematologic Technologies
# T1 sequence (P04070 212-450 limits assumed): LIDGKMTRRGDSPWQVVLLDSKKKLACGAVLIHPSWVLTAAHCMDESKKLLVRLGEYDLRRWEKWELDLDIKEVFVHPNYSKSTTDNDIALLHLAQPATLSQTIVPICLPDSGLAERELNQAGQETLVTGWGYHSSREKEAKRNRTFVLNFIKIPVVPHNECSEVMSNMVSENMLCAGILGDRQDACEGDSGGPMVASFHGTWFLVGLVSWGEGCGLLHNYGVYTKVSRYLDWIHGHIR
# T1 sequence (P04070 43-197 limits assumed): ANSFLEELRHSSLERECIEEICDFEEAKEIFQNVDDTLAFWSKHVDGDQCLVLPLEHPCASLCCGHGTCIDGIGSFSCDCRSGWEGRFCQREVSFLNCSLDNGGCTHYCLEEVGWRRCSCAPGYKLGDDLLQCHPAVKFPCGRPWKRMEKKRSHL
# Experimental: B: Dose-response curves of APC (10 nM) inhibition by DrKIn-I in the absence (◯) and presence (●) of 0.1 U/ml heparin. C: To determine the minimum concentration of heparin required for the potentiation APC inhibition, the activity of APC (20 nM) was measured after the addition of DrKIn-I (20 nM) and varying concentrations of heparin (0-1000 mU/ml). D: To assess the ability of heparan sulfate and the minimum length of heparan sulfate required to potentiate DrKIn-I-mediated APC inhibition, the amidolytic activity of APC was determined in the presence of DrKIn-I (20 nM) and different lengths of heparan sulfate chains (10 μg/ml each). E, Time course of FVa inactivation by APC (1 nM) was assessed in the absence (●) or presence (▪) of 5 nM DrKIn-I, or in the presence of 5 nM DrKIn-I supplemented with 0.1 U/ml heparin (▴), as described in “Materials and methods”. F, The effect of DrKIn-I (0-250 nM) and/or heparin (0.1 U/ml) on APC-mediated FVa inactivation was determined after 10 minutes of incubation at 37° C. with APC (5 nM). Results shown are means±SD of three experiments.
# In assays involving FVa, 20 nM purified FVa was incubated at 37° C. with a mixture containing 1 nM or 5 nM APC, 20 nM protein S, 20 μM DOPC/DOPS (75:25) and 5-250 nM DrKIn-I in the presence or absence of 0.1 U/ml heparin. At specific time intervals, 5 μl aliquots were removed and mixed with 50 μl of FV-deficient plasma. The residual FVa activities were quantified in a standard prothrombin time-based assay using a calibration curved obtained by adding variable amounts of FVa to FV-deficient plasma. All concentrations given were final concentrations.
# APC [4] = target: T1, APC; experiment: Kinetic analysis of APC inhibition (Morrison tight binding equation); type: biochemical; parameters: purchased Haematologic Technologies
# Experimental: Initial velocities of APC (20 nM) were measured in the presence of increasing concentrations of DrKIn-I (0-80 nM) using different concentrations of Spectrozyme PCa (●, 0.4 mM; ▪, 0.2 mM; ▴, 0.1 mM; ▾, 0.05 mM; ♦, 0.025 mM) as substrate.
# APC was incubated with heparin and increasing concentrations of DrKIn-I for 3 minutes. The initial reaction velocities (mOD405 nm/min) were then determined at 37° C. after the addition of varying concentrations of Spectrozyme PCa. The final concentrations were as follows: APC (20 nM), heparin (0.1 U/ml), DrKIn-I (0-80 nM) and Spectrozyme PCa (0.025-0.4 mM). Initial velocities were plotted against inhibitor concentrations for each substrate concentration tested and the plots were subjected to nonlinear least squares regression using GraphPad Prism software. The inhibition constant (Ki) of DrKIn-I was determined by global fitting to Morrison's tight binding equation as shown below, Vs=(Vo/2Et){[Ki′+It−Et)^2+4Ki′Et]^1/2−(Ki′+It−Et) (Eq. 1) where Vs is the steady state velocity in the presence of inhibitor, while Vo is the velocity in the absence of inhibitor. It is the total inhibitor concentration and Et is the total enzyme concentration. Ki′ is the apparent inhibition constant. […] (vii) Selectivity Profile of DrKIn-I
substance,measurement,setting,value
DrKIn-I (CGGNDNNFETRKKCRQTCGAPRKGRPT),NaCl concentration at elution from heparin column,[1],0.95 M
same,thrombin generation profile (APC-independent),[2],did not alter the thrombin generation profile; also recorded: negligible effects
same,DrKIn-I concentration correcting ETP to normal levels,FIX-deficient plasma,160 nM
same,peak thrombin level relative to normal plasma (partial correction),FIX-deficient plasma,approximately 85%
same,FVa protected from inactivation,"APC [3]; 5 nM DrKIn-I with 0.1 U/ml heparin, APC 1 nM, FVa 20 nM",100%
same,FVa protected from inactivation,"APC [3]; 250 nM DrKIn-I (50-fold molar excess) without heparin, APC 5 nM, 10 minutes",less than 20%
same,effect on APC-mediated FVa degradation,"APC [3]; without heparin (5 nM DrKIn-I, APC 1 nM, FVa 20 nM)",relatively no effect on APC activity; also recorded: negligible
same,Ki,"APC [4]; 0.1 U/ml heparin, APC 20 nM, read-out: inhibition constant (Ki)",0.053 nM and ~0.053 nM and ~0.05 nM
same,ratio of Ki for FXIa and plasmin to Ki for APC,APC [4]; in the presence of heparin,at least 25 fold
